Laboratory results from paper doi:10.1101/2023.10.09.561523 (bioRxiv, 2023).

Target: the molecule itself
Test: mass photometry

B1: SH3-domain containing protein 2 (SH3P2), purified full-length protein (natural protein, Arabidopsis thaliana, UniProt Q8VWF1 1-368, looked up)
chain: MDAIRKQASRLREQVARQQQAVFKQFGGGGYGSGLADEAELNQHQKLEKLYISTRAAKHYQRDIVRGVEGYIVTGSKQVEIGTKLSEDSRKYGSENTCTNGNVLTRAALNYGRARAQMEKERGNMLKALGTQVAEPLRAMVLGAPLEDARHLAQRYDRMRQEAEAQATEVARRQAKARESQGNPDILMKLESAEAKLHDLKSNMTILGKEAASALASVEDQQQKLTLERLLSMVESERAYHQRVLQILDQLEGEMVSERQRIEAPSTPSSADSMPPPPSYEEANGVFASQMHDTSTDSMGYFLGEVLFPYHGVTDVELSLSTGEYVVVRKVTGSGWAEGECKGKAGWFPYGYIERRERVLASKVSEVF
stoichiometry N: 2
